This experiment has as its target T1, alpha globin (Homo sapiens, UniProt P69905).
T1 construct: The equilibrium dissociation constant of full-length alpha globin and the eNOS oxygenase domain had not previously been quantified
Briefly: Protein-protein binding affinity by biolayer interferometry. Conditions: binding to immobilized biotinylated alpha globin. As to the method:
FIGS. 2A-2D: A) Beta globin, eNOS, and cytochrome B5 reductase 3 (Cyb5R3) co-immunoprecipitate with alpha globin in lysates of perfused human omental arteries. P1, P2, and P3 each represent an independent replicate consisting of pooled flash-frozen arteries from two donors (n=30 arteries from each donor). P1 and P2 were incubated with an alpha globin antibody to immunoprecipitate alpha globin and bound protein partners. P3 was incubated instead with an IgG antibody as a negative control. Western blot was performed on the immunoprecipitate with antibodies for alpha globin, beta globin, Cyb5R3, or eNOS. Myc-eNOS purified from a cell overexpression lysate served as a positive control for eNOS. RBC lysate served as a positive control for alpha and beta globin. B) The red blood cell protein Band 3/SLC4A1 is not detected in protein lysates from pooled human omental arteries. Prior to immunoprecipitation, whole protein lysate was loaded into a gel and probed by Western Blot for SLC4A1 and alpha globin. […] C-D) Biolayer interferometry sensorgram traces of the binding of eNOS or AHSP to alpha globin showing association and dissociation; raw datasets shown in black, fitting curves shown. […]
Protein-protein binding affinity assessed by biolayer interferometry: Biolayer interferometry experiments were performed on the automated eight-channel Octet RED96 instrument (ForteBio). […]

What is called Kd is the concentration at which binding is half-saturated. Read a high Kd as a looser complex.

T1 sequence (P69905 whole entry, the tested form may be a part): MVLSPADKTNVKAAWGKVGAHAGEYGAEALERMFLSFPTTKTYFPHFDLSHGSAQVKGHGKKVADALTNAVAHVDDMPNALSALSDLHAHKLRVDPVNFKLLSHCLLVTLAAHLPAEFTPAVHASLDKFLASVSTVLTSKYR

B1: eNOSox: recombinant human eNOS oxidase domain (protein)
chain: PKFPRVKNWEVGSITYDTLSAQAQQDGPCTPRRCLGSLVFPRKLQGRPSPGPPAPEQLLSQARDFINQYYSSIKRSGSQAHEQRLQEVEAEVAATGTYQLRESELVFGAKQAWRNAPRCVGRIQWGKLQVFDARDCRSAQEMFTYICNHIKYATNRGNLRSAITVFPQRCPGRGDFRIWNSQLVRYAGYRQQDGSVRGDPANVEITELCIQHGWTPGNGRFDVLPLLLQAPDDPPELFLLPPELVLEVPLEHPTLEWFAALGLRWYALPAVSNMLLEIGGLEFPAAPFSGWYMSTEIGTRNLCDPHRYNILEDVAVCMDLDTRTTSSLWKDKAAVEINVAVLHSYQLAKVTIVDHHAATASFMKHLENEQKARGGCPADWAWIVPPISGSLTPVFHQEMVNYFLSPAFRYQPDPWKGSAAKGTGITR
Consider B1, for which the Kd was determined as 1310 nM.

The values are drawn from patent publication US20260258113A1, “BETA GLOBIN MIMETIC PEPTIDES AND THEIR USE” (THE UNITED STATES OF AMERICA, AS REPRESENTED BY THE …, priority 2022, published 2026).
